# According to the DeepSol protein solubility set:
# Experiment: soluble on expression in E. coli; label from the status in PepcDB or PDB records
row,Sequence,soluble on expression in E. coli
1,MGSDKIHHHHHHMSTSAPINRRLTKKIYVGDVAIGGDAPISVQSMTNTDTCDVAATVAQIERCVEAGADLMRVSTPTMDTVKAFGEIRKLVSVPLIADVHFDHKIALAVAAAGADCLRINPGNIGSDAKVREVVACAKHYNIPIRIGVNAGSLEKDIQRKYKEPNGAAMLESAMRHIDILERLNFDQYKVSVKASNVFLTMDAYRLISAQIDNPLHLGVTEAGVYRTGSVKSAIALGGLLLDGIGDTIRISLAAEPEEEIKIGFDILKSLNIRSNGVNFIACPSCSRQEFDVIRVMTALESRLEDIREPMNLSVIGCKVNGPGEAKEADIGIVGAAPKSLVYRMGEKSHLIDTDNLVDEIEGMVRAHAEELAKKRENEIIRVR,not soluble
2,MGHHHHHHSHMLKSERKQIILSQLKQDGFVTLENLTVLLSDTSESTIRRDLDELAADGKLKRVHGGAESIHGLKEEIANSQKAIRNVQEKAQLAGYAADLIKEGDVVFLEASTTNELLIPHLSNRQVTVVTNSIHHAVKLVDLGISTRIIGGKVKHSTDASIGSTALEQIRQLNFDCAFIGANGVDANYFTTPDMEEAVIKRTVIANAQKAYVLADASKLGQITYAKVAEVEKVTIITNASEEGLLKELKEKTRVIEV,soluble
3,MKQKIWYTYDDIHRVIKALAEKIRNADIKYDAMIAIGGGGFIPARMLRCFLEIPIYAVTTAYYDSDNEGQVTEEVKKVQWLDPVPEALRGKNVLVVDEVDDSRVTMEFCLKELLKEDFGTIGVAVLHEKIKAKAGKIPEGIPYFSGITVEDWWINYPWDALDIDEHNRLAEAGRG,not soluble
4,MQRMNFSSLIETFAVDFQLVLPSVEGAGKYIHGEWFPTNEEPKTVSGAIIPYDNRTIYQSGGTLTSSDRQLAYVGSIPLGSKIIDMGKEYKVESEEPYAEHYADVNLYRLKAVTNNAAN,not soluble
5,MAEGERQPPPDSSEEAPPATQNFIIPKKEIHTVPDMGKWKRSQAYADYIGFILTLNEGVKGKKLTFEYRVSEAIEKLVALLNTLDRWIDETPPVDQPSRFGNKAYRTWYAKLDEEAENLVATVVPTHLAAAVPEVAVYLKESVGNSTRIDYGTGHEAAFAAFLCCLCKIGVLRVDDQIAIVFKVFNRYLEVMRKLQKTYRMEPAGSQGVWGLDDFQFLPFIWGSSQLIDHPYLEPRHFVDEKAVNENHKDYMFLECILFITEMKTGPFAEHSNQLWNISAVPSWSKVNQGLIRMYKAECLEKFPVIQHFKFGSLLPIHPVTSG,soluble
6,MGSDKIHHHHHHATKTEQIPVNKTYAACPQNWIGVENKCFYFSEYPSNWTFAQAFCMAQEAQLARFDNQDELNFLMRYKANFDSWIGLHRESSEHPWKWTDNTEYNNTIPIRGEERFAYLNNNGISSTRIYSLRMWICSKL,not soluble
7,MLLHLPNGDVLCVWFGGTQEGIADISIYMSRLVKDSGSWSKAAKLSEDATRSEQNPVLFLAPDNVLWLLYTAQKSGNQDTAIVRYRQSTDLGATWGEIGTLLDQPGTFIRQPITVLENGDWLLPVFYCRVQPGEKWVGNDDDSAVKISSDQGKTWREYPVPNSTGCVHMNITPLQDGTLLALYRSRWADFIYQSRSTDGGKTWSEPVATDLPNNNSSIQVTTLKNGHLALVFNHMSAADATDRRLSLYDELEHHHHHH,soluble
8,MSLEALGVAVVGFGWMGRVHTQAYARVRHHYPHLALRPELVTVAEEVPGRAEEAAAQFGFASTTRDWREVAADPRVHAVSITAPNFLHREIAVAMAGAGKHIWVEKPVGLSSDDARAVADAVSGAGVQGAVGFNYRNAPAVETARRLIAAGEIGTVTHARLRFFSDYAAHPEGALTWRYERERGGSGVLGDLASHGADLARFLLGDIASLTADTAVFVPERARPASATAGHARATGGEPGPVENEDYVSCLLRFASGARGVLEACRVSVGEQNNYGFEVHGTTGAVFWDFRRMNELRVSRGTEYQDQPVSTVYVGPGDGEFAAFQPGAANAMGYDDLKVVEAHRFLRSIAEGTPYGATLSDAVHSAAVLEAMSRSAERGTWVSPGEGHHHHHH,soluble
9,MSKDAVSILFLGIDDNEGRRKNGQTTEHSRTDSMILSTFSPEKRQIRLLSIPRDTISYIPKVGYYDKITHAHAYGGPVAAMDSVEATLNVPVDYYVRVNMDAFVEAVDELGGIYYDVPYDLNEPNTDDSGRIKIKKGYQKLNGDEALAVARTRHHDSDLKRGERQMDLIKLLFQKAKSLDSYDKLDDLVQIVGKNAKHNLTSSEIKSLASMYLSDDIEFKKSQLKGKDDYLQNIYYYNPSVSSIMKYSNILRSDLGLSKITDKDEFLDQRVIKHYGTLIPLTPLDQSLLKNNQKDSSSSDDNNDDSTNSDNNNNIQSSEENSSNSNEGIDQSSQGSTQSDNYNQTNSSNSFNNNQDQMNQIYLEHHHHHH,soluble
10,MQCGLLKHRLLKFFSTEAIMTTNQRSIKAPQTVVVKLGTSVLTGGTLALDRAHMVELARQCAELKKQGHSVVIVTSGAIAAGREHLGYPALPNAISSKQLLAAVGQSRLIQVWESLFAIYGIKIGQMLLTRADLDDRERFLNARDTINALVENGIVPVVNENDAVATNEIKVGDNDNLSALVGILCGADKLLLLTDQKGLFTADPRKDPNAQLIKEVTTIDDTLRKIAGGSGTTLGTGGMATKLQAADIARRAGIEVIIAAGRAPNVIFDSLSDEPQGTRFLALEEALENRKRWILAGPAASGDIVIDDGAVKAVQTKGSSLLAKGVVRVQGQFARGEVVRVLDKQSHLIARGIAAYSNDELAQIAGKHSKEIIDILGYDHGSEVIHRDDMVVIQE,not soluble
11,VPGTLLPRLPSEPGMTLLTIRIEKIGLKDAGQCIDPYITVSVKDLNGIDLTPVQDTPVASRKEDTYVHFNVDIELQKHVEKLTKGAAIFFEFKHYKPKKRFTSTKCFAFMEMDEIKPGPIVIELYKKPTDFKRKKLQLLTKKPLYLHLHQSLHKE,soluble
12,MGSDKIHHHHHHVEQTQTRVYQYKFVNSISNIDSLIWNIFFGSSHPFTRHEYLSALEMSRCVSTETGWTPMHLIVMDGDNIIALMPLYLKSHSWGEYVFDWAWAEAYERHNIGYYPKLVGSIPFTPTTGRRIGIDPRLPKHDQQPLIDGIQTYLSQTVIKQGWSSWHCLFTNTEQHLQFAQAGVMERVGCQFHWHNQNYADFNDFLSTLTSRKRKNITKERISARQQLQFRFIDGDKASAQQWQNFVRCYQNTYLKRSGHKGYLSAAFFEQIAATMGSMIRLLLIENSDAQLVASALYFVSDTHLYGRYWGALTECDYVHFEACYYQGIEYAIANQLLVFDAGAQGEHKVARGFRPVKTTSSHFVAHEGFNDAIGAFCQQEQAHIDIYIQQMCEQLPYKSIDNT,not soluble
13,MSTPHTPKPGPRPGAVPGPRPGAHAARKVVAPNVSAMNQARAFGRVDDDGTVYLIRGGETKKIGSWQAGTPEEGLQHYIHRFEDLATEVALLESRLKSHPNDASHIKEKAGEIRDGLDDAAIIGDLDSLEKRLNSIIDGADSAGEKARELKQQLQEKAIEQKQKLVAEAEEIAEKSTDWKVAGDRIREILDEWKTIKGIDRKTDDELWKLYSRARDSFNRRRGSHFAELDRGRAAARRIKEDLVEKANILKESTDWNDTAHAFKELMNEWKAAGRAPRDVDDKLWAAFKGAQDYFFNARNAVNDQRDREFAANAEAKDALIDEYTPLIDPAQGLESAREKLRELQEKWEAIGYVPRNRVREYEEKIANLEKRVTEAADAQWRRTDPAAQARAAQFISKVEEFTAQAAEAEVKGNTKKAEQLRAQAQQWQEWADAAINAVENR,not soluble
14,MSIKILKPGLFSTIQDIGRLGYQDLGFSEAGALDYYSLSIAQKLIGNHGPAIEYTLVGPNIEFLTDNTFAIVGGDSEPKLNGNKIDLLTVYHVRNGDQLDIGQITEGARGYIVFGHPLKINKVAQSYSTHVRSGMGGFKGRALKKYDVIATQVNHNYKTNLGKTIDFSSIPDNNYIHVIEGPQINEFDEETIAKFVNSDFKISDQSDRMGYRLKGNTVAPKNSADIISEPVALGSIQVPNDGNPIILLNDKQTIGGYTKIATVTQLDLRKLAQMKPGDIIQFKWITVEEASKKLKEFNTKFEQLLKRFDEQPLFNLNQLRHTSNKIAEIIKEDRLEHHHHHH,not soluble
15,MRGLKTFSILGLIVALLLVAACGNTDNSSKKESSTKDTISVKDENGTVKVPKDAKRIVVLEYSFADALAALDVKPVGIADDGKKKRIIKPVREKIGDYTSVGTRKQPNLEEISKLKPDLIIADSSRHKGINKELNKIAPTLSLKSFDGDYKQNINSFKTIAKALNKEKEGEKRLAEHDKLINKYKDEIKFDRNQKVLPAVVAKAGLLAHPNYSYVGQFLNELGFKNALSDDVTKGLSKYLKGPYLQLDTEHLADLNPERMIIMTDHAKKDSAEFKKLQEDATWKKLNAVKNNRVDIVDRDVWARSRGLISSEEMAKELVELSKKEQK,not soluble
16,MAYVTLYPNLILEALGKVRYPGTGKDLVSAGMVEDDIRIDGNKVSFSLIFDKANDPFIKSVVKAAESAILTYISEDVNIKGNISVKSKQAIPAPPAKLLPGVKNIIAVFSGKGGVGKSTVTANLAVSLAKSGYRVGLLDADIFGPSMPKMFHCEESRPVLEEVDGRELIVPEEVMGVKILSIGFFVDPDNAVLWRGSMAGNALTQLIRDANWGELDYFLIDMPPGTSDIHLTLVQTLAITGAVVVTTPQDVALADARKGISMFVGEKINVPVLGLVENMSWFTPAELPQNKYYIFGRDGGKNLAEELNIPLLGQIPLVQGICQSGDEGIPVAVRDDSMMGIAFRELAARVVEQVDYRNEHLDPTKVVEVAHR,not soluble
17,MPITNERKETIRVAKKLNKFIALPSMLNWKVHESDVLRRGRVLCMIRSKNFFFPDDISSLKMRMATVTKHGYLVLYESVDEGLVIDLRSATHILTECDKYKSERIKYSRSHVKVRLPRGNVHMFLRDDDISKWTAALLEAHVSFRPTAAARVVAKPRQQPSKNVETMTAIEPVEVMDSPTSPVTSSNSGLITVLERGVSSEDTLIPSVRRGVIPVNTLRYQIEKHLEMCTPASEQLSKSSDPNISSMYVFHQGIQVKQEPIDDDQEEEQQVQKQLVFKIEGSEDEEAVKKEWWLRSLRC,not soluble
18,MIVNRNPFEQLPSLAINPEDFDVLYSAETFRTRLLDAISKATSRIYLVALYLEDDEAGREILTALYEAKQRNPGLDINICVDWHRAQRGLIGAETSEGNSALYKAFADQYQHAIPVYGIPVRGREVFGVLHLKGFVVDDTVIYSGASLNNVYLQYHGRYRFDRYHVIKHKSLADTMVNFVQNEMIAHPAVNDLADRDKPETKEIKSAIRQLRSSLAQANYQFAHEAAAEDKVKITPLVGLGKRRNLLNQQIVKLLAAAQNEIFICTPYFNFPKSIHREVKRAMKRGVKVTIVVGDKTANDFYISPEEDFKTIGGLPYLYEVNLRRFAKANEANIAARKLSVHLWKHENNSFHLKGIWVDKRYMLLTGNNLNPRAWSLDLENGLLIQDDYANLTHKFEDEVARILEHTQLICTYKQLEKVEDYPLAVQKLVRKITRLKADGVLKRILLEHHHHHH,soluble
19,GPGSMGSKYDRVKVKVHLDDEHYYILSRFILSKMLTACKLPTTAAVCVSLALKKSLVDQERLDISQRELEAATLSTMAQHGYGAAFTRLLPVMTRFFIERTPLIVFMAGSGCCGKTSMARSLSVRLNTHNIVSTDLLLDILRATHHAYPSSALRGDLVELSDERVLPCVSEHSLWLSDTLAVDDFVRLWRTLTRAIRSLVEGEVEKALVEGKVLIVEGSLIDLSLYHNYLLDSFQSQRGVIAVAFHISSDEMSRNFAVERLVSTYRSVLPLSYTDNYNGALEWVQCRLRAIEGEHLRVLRGDSSAMQLHCIDDSLCDPATGDSTSVRDLSESYSNETSSTCDTRQLRLSQDNAEIVPVYGVTNSMAASSRVCESMHGLILDRIISALKQKGPLNLEHGNVVWCQAMDSEYMSPTNDT,not soluble
20,MPYRKYREKKYETKYREAFKLFQEKIGITFTDEKLLIQAFTHSSYVNEHRKKPHEDNERLEFLGDAVLELTVSQYLFQKYPTMSEGELTKLRAAIVCEPSLVRFANELSFGSLVLLGKGEEMTGGRERPALLADVFEAFIGALYLDQGLETVWGFLKEIVYPKINEGAFSHVMDYKSQLQELIQRDGSGNIEYQILQEKGPAHNREFVSRVTLNNVALGLGSGKSKKEAEQQAAAEALKKLKEQL,soluble
